Our source for the activity (% transgenic embryos) values is patent US7098031.

The data set has as its system PI-SceI meganuclease. Description: cell_activity. The following applies: mouse eggs, purified protein co-injected, DNA/protein 1:25; 3 of 10 embryos; indirect evidence of cleavage.

Consider PI-SceI sites in PIFFLago, for which the activity (% transgenic embryos) turned out to be 30.
